Assay results taken from the supplement of paper PMC9732359.
± gives the uncertainty stated by the source.

Assay: protein stability index of a GFP-peptide fusion (yeast GPS) (PSI 1-4); higher = more stable; sorted into four equal gates, so the index is relative within each strain
How it was run: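 Plasmids in a pooled yeast library fused tiled 17-residue yeast protein peptides downstream of GFP and also expressed Cherry. Mid-log cultures grown without leucine were sorted into four equal gates by GFP/Cherry fluorescence ratio. Each gate's plasmids were PCR-amplified and Illumina-sequenced, and reads were matched to strains by barcodes. The protein stability index is derived by multiplying each gate's read frequency by its gate number and summing the results.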

Row | Sequence | protein stability index (san1∆) | protein stability index (doa10∆) | protein stability index (pdr5∆) | protein stability index (ubr1∆)
1 | VTNSLSNEEKEKIKMKL [GAL11] | 3.1 ± 0.13 | – | – | –
2 | NVEKYPTFVEFILIPLY [SNU114] | 2.04 ± 0.069 | 2.33 ± 0.052 | 2.46 ± 0.054 | 2.65 ± 0.053
3 | TKEQYAAESKKYRQTKL [RPL5] | 3.37 ± 0.094 | 3.17 ± 0.14 | 3.28 ± 0.18 | 3.12 ± 0.1
4 | IKEDIKKQPSILVGGTL [SNF2] | 2.92 ± 0.12 | 1.93 ± 0.084 | 2.15 ± 0.12 | 3.27 ± 0.14
5 | NYSSLPSPYKTTVYRYS [YAR002W/NUP60] | 1.71 ± 0.057 | 2.04 ± 0.045 | 2.27 ± 0.038 | 1.91 ± 0.034
6 | KVPIGLILQRLKDLNLT [RGR1] | 2.98 ± 0.074 | 2.48 ± 0.1 | 2.57 ± 0.09 | 2.63 ± 0.053
7 | QVNGNIRKVSNDRESVL [SMC3] | 1.92 ± 0.083 | 3.12 ± 0.15 | 1.88 ± 0.079 | 2.18 ± 0.056
8 | EKFPNDVKLLNPIDIKR [RPP1] | 3.14 ± 0.038 | 2.91 ± 0.062 | 2.97 ± 0.041 | 3.01 ± 0.039
9 | FKVARELKTEAAVLSNL [ITC1] | 2.9 ± 0.089 | 2.83 ± 0.19 | 2.66 ± 0.11 | 2.86 ± 0.061
10 | DELLSQLDLCKLYFQLF [SRP68] | 1.46 ± 0.15 | 1.56 ± 0.1 | 1.67 ± 0.11 | 1.72 ± 0.057
11 | TLDNPLLVDKDANGVSL [YJL039C/NUP192] | 3.08 ± 0.038 | 3.17 ± 0.057 | 3.12 ± 0.048 | 3.13 ± 0.035
12 | LNPQVADINKNFLSVIT [RPN2] | 1.98 ± 0.071 | 1.81 ± 0.065 | 2.19 ± 0.053 | 1.95 ± 0.053
13 | QEEGSFEFGNMKATSNT [FAS2] | 3.14 ± 0.056 | 3.28 ± 0.05 | 3.38 ± 0.07 | 3.17 ± 0.042
14 | MSLKDKLLIQIDELSNG [SMC1] | 3.08 ± 0.11 | 2.27 ± 0.084 | 2.34 ± 0.11 | 2.52 ± 0.1
15 | GFVIQDRETALDFIGRR [RPB2] | 3.34 ± 0.077 | 3.02 ± 0.075 | 2.92 ± 0.13 | 3 ± 0.11
16 | GYSGYGNGITNTTTRVI [SNF5] | 2.76 ± 0.18 | 3.64 ± 0.2 | 3.72 ± 0.24 | –
17 | TVKTSDDYVLRIFAIAF [RPS1A] | 2.453 ± 0.023 | 2.534 ± 0.02 | 2.308 ± 0.018 | 2.55 ± 0.016
18 | QLPANMVHLYSIVEECD [RPC17] | 1.86 ± 0.065 | 1.99 ± 0.044 | 1.98 ± 0.045 | 2.02 ± 0.04
19 | TPLTFALPRGARTATVS [RPL14A] | 1.4 ± 0.1 | 1.55 ± 0.063 | 1.5 ± 0.061 | 1.57 ± 0.049
20 | DVVMKATEPQMVLFNIY [PRP8] | 1.58 ± 0.078 | 2.03 ± 0.046 | 1.76 ± 0.049 | 1.77 ± 0.043
21 | YISKAQNDQWSIQMEFM [SSN2] | 2.71 ± 0.059 | 2.79 ± 0.064 | 2.73 ± 0.071 | 3.04 ± 0.053
22 | SKSGRIFALVFSSNERY [RPN13] | 2.28 ± 0.11 | 2.45 ± 0.1 | 2.74 ± 0.086 | 2.62 ± 0.049
23 | ECPGHFGHIDLAKPVFH [RPO21] | 2.74 ± 0.048 | 2.69 ± 0.064 | 2.88 ± 0.06 | 2.92 ± 0.052
24 | QIANDPSKKRRRDFGAP [SMD1] | 2.86 ± 0.092 | 2.81 ± 0.12 | 3.18 ± 0.1 | 3.25 ± 0.073
25 | SCRNPEHTDVIDELIDT [YIL149C/MLP2] | 2.58 ± 0.047 | 2.68 ± 0.054 | 2.76 ± 0.061 | 2.58 ± 0.035
26 | TNVIAFAFWNLLVKFIK [YLR018C/POM34] | 1.29 ± 0.16 | 1.42 ± 0.092 | 1.39 ± 0.084 | 1.48 ± 0.042
27 | EELDITPLFPIDRNSTI [IRR1] | 2.9 ± 0.095 | 2.48 ± 0.11 | 2.9 ± 0.14 | 2.8 ± 0.1

Row | Sequence | protein stability index (san1∆) | protein stability index (doa10∆) | protein stability index (pdr5∆) | protein stability index (ubr1∆)
28 | RSNQYQRGKMHGLKQLR [NUT2] | 1.48 ± 0.28 | 2.67 ± 0.1 | 2.91 ± 0.078 | 1.74 ± 0.076
29 | QAESMKFKLLNGLAIRR [RPS3] | 1.48 ± 0.12 | 1.69 ± 0.069 | 2.3 ± 0.085 | 2.58 ± 0.1
30 | AENLLQLKTGLAAIVST [YGL172W/NUP49] | 2.99 ± 0.087 | – | 3.3 ± 0.19 | 2.5 ± 0.2
31 | DKLELYVLRNVLRIPEE [MTW1] | 2.94 ± 0.076 | 3 ± 0.13 | 2.45 ± 0.084 | 3.41 ± 0.12
32 | TENEIPNLIEKMVAKGL [BRR2] | 2.63 ± 0.093 | 2.85 ± 0.17 | 2.81 ± 0.13 | 2.78 ± 0.11
33 | PLLSKKERLVRDKKEKK [SMB1] | 2.72 ± 0.18 | 3.37 ± 0.24 | 3 ± 0.11 | 3.15 ± 0.17
34 | NIETGENHNGQSISNEN [SWI3] | 3.06 ± 0.12 | 2.59 ± 0.26 | 3.14 ± 0.12 | 3.13 ± 0.12
35 | LRDIGECENEIKTKQMS [SMC2] | 3.2 ± 0.097 | 3.05 ± 0.29 | 3.29 ± 0.092 | 3.41 ± 0.12
36 | LNKAGKPFRQTKFKVRG [RPL38] | 3.19 ± 0.11 | 2.78 ± 0.12 | 3.33 ± 0.069 | 3.04 ± 0.081
37 | GKLLLDEHNELMRQALA [RPO21] | 2.02 ± 0.074 | 2.41 ± 0.052 | 2.54 ± 0.086 | 2.84 ± 0.051
38 | VNGVPLRRVNARYVIAT [RPL6A] | 1.37 ± 0.11 | 1.61 ± 0.095 | 1.9 ± 0.066 | 1.23 ± 0.05
39 | APDSEYLCFILSTRAGG [SNF2] | 2.01 ± 0.063 | 1.97 ± 0.055 | 1.97 ± 0.058 | 1.93 ± 0.041
40 | NIVMDSKQNGIEQSITK [SSN8] | 2.61 ± 0.18 | 3.08 ± 0.16 | 2.59 ± 0.28 | 3.15 ± 0.12
41 | GNESVKPQFENHVKQFY [MED11] | – | 2.83 ± 0.19 | 2.57 ± 0.22 | –
42 | ILRQRGPGFKFVDLNEK [SRB4] | 1.44 ± 0.21 | 2.57 ± 0.11 | 1.64 ± 0.076 | 1.75 ± 0.079
43 | LRRTTQRVFDETEQEYS [YDL116W/NUP84] | 3.2 ± 0.061 | 3.21 ± 0.064 | 3.03 ± 0.046 | 3.19 ± 0.043
44 | LEVGKNNFCALYNLSNP [RPN14] | 1.43 ± 0.15 | 1.58 ± 0.092 | 1.2 ± 0.14 | 1.13 ± 0.046
45 | FAEYIQANIQLYSIRED [PRE1] | 2.49 ± 0.068 | 2.39 ± 0.1 | 2.67 ± 0.091 | 2.59 ± 0.091
46 | EKGPQVCAKLFGNIQKV [RPO21] | 2.29 ± 0.079 | 2.63 ± 0.08 | 2.29 ± 0.057 | 2.09 ± 0.06
47 | SLYKVSFLEKPKFAIQD [YMR129W/POM152] | 2.77 ± 0.071 | 2.93 ± 0.11 | 2.68 ± 0.12 | 2.53 ± 0.13
48 | ECKGCDNKIDIYQIHIP [RPB2] | 3.02 ± 0.035 | 3 ± 0.044 | 2.87 ± 0.048 | 2.54 ± 0.032
49 | GHYQAFIRDELDENKWY [UBP6] | 1.53 ± 0.12 | 1.49 ± 0.057 | 1.88 ± 0.047 | 1.85 ± 0.063
50 | KEHDEIEEQGDALQDVE [DPB4] | 3.36 ± 0.06 | 3.17 ± 0.092 | 3.39 ± 0.12 | 3.36 ± 0.067
51 | GLIPADATFAGHSLGEY [FAS1] | 3.08 ± 0.11 | 3.01 ± 0.087 | 3.21 ± 0.06 | 3.03 ± 0.059
52 | IDVLLEQTTGGNNKDLK [RPB4] | – | – | 3.68 ± 0.27 | 3.5 ± 0.079
53 | NMVLENVKELWTEKKGK [SMD2] | 2.47 ± 0.14 | 2.91 ± 0.11 | 2.67 ± 0.098 | 3.3 ± 0.065
54 | DVNSASKSESDSQIVTP [RRP4] | 3.06 ± 0.099 | 3.17 ± 0.088 | 3.28 ± 0.073 | 2.78 ± 0.1
